This is an account of results in patent US20200239586A1 (LA TROBE UNIVERSITY, published 2020).

In assay [1] the target is phage-displayed hFn14 mutant T33N (human, UniProt Q9NP84 28-77). As to the kind of experiment: phage ELISA, antibody on plate. On the technique in general: An ELISA detects its analyte on a solid surface through an enzyme-linked reagent.
Assay [2] addresses phage-displayed hFn14 mutant A34S (human, UniProt Q9NP84 28-77). As to the kind of experiment: phage ELISA, antibody on plate.
Assay [3] addresses phage-displayed hFn14 mutant R38S (human, UniProt Q9NP84 28-77). As to the kind of experiment: phage ELISA, antibody on plate.
In assay [4] the target is phage-displayed hFn14 mutant R56P (human, UniProt Q9NP84 28-77). The assay can be described thus: phage ELISA, antibody on plate.
phage-displayed hFn14 mutant R56P, sequence (Q9NP84 28-77 R56P): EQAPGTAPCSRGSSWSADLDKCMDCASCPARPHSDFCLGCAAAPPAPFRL
Assay [5] concerns the target phage-displayed hFn14 mutant L77M (human, UniProt Q9NP84 28-76). As to the kind of experiment: phage ELISA, antibody on plate.
Assay [6] addresses T1, recombinant Fn14-Fc (human, UniProt Q9NP84 28-77).
T1 construct: also called native Fn14; not shown: Fc region (recognised by anti-human Fc)
As to the kind of experiment: SPR (ProteOn XPR36), mAb captured on anti-mouse IgG, Fn14-Fc analyte, bivalent analyte fit. The protocol: (§1) The interaction of mouse anti-Fn14 IgG monoclonal antibodies CRCBT-06-001 and CRCBT-06-002 with recombinant Fn14-Fc was measured using the Bio-Rad ProteOn XPR36 essentially as described by Nahshol et al., (2008). Briefly, a GLM ProteOn sensor chip was activated by flowing a mixture of 0.2 M EDC and 0.05 M sulpho-NHS over the chip (150 μl at 30 μl/min for 5 minutes). Rabbit anti-mouse IgG whole molecule (Sigma M-7023) was then coupled to the chip in the vertical orientation by flowing 150 μl of a 50 μg/ml solution in 10 mM acetate buffer (pH 4.5) at 30 μl/min. The remaining coupling sites were then deactivated by flowing 150 μl of 1 M ethanolamine-HCl (pH 8.5) at 30 μl/min. Mouse anti-Fn14 IgG monoclonal antibodies were then bound to the coupled anti-mouse IgG antibody by flowing 150 μl of 100 μg/ml IgG at 25 μl/min over a single channel of the sensor chip in the horizontal direction. […] PBS Tween 20 (0.005%) alone was passed over the remaining channel. Binding sensorgrams were collected and analyzed with the ProteOn Manager 2.1 XPR36 software using the Langmuir or bivalent analyte kinetic models to fit the data and determine the affinity constant KD.
(§2) A Bio-Rad ProteOn XPR36 was used to determine the affinity of mouse monoclonal anti-Fn14 antibodies CRCBT-06-001 and CRCBT-06-002 to recombinant Fn14-Fc. It is clear that both antibodies tested display a high on-rate and a low off-rate. The ProteOn software was used to fit a curve to the sensorgram based on a mathematical model, enabling the kinetics of the interaction (ka, Kd and KD) to be calculated. A number of models can be used to fit the curves to the sensorgram, essentially the models used for each sensorgram were used as they provided the best fit, as evident by the low Chi² value obtained for the residuals.

The target of assay [7] is T1, recombinant Fn14-Fc. The assay can be described thus: SPR (ProteOn XPR36), mAb captured on anti-mouse IgG, Fn14-Fc analyte, Langmuir fit. The protocol: as §1, §2
Assay [8] has as its target T2, Fn14 gene fragment RW129 on phage (human, UniProt Q9NP84 32-74).
T2 construct: not shown: M13 pIII coat protein (gene fragment library in pHENH6)
As to the kind of experiment: phage ELISA, Fn14 gene fragments on phage, CRCBT-06-001 wells versus blank wells.

The target of assay [9] is T3, Fn14 gene fragment RW131 on phage (human, UniProt Q9NP84 23-69).
T3 construct: not shown: M13 pIII coat protein (gene fragment library in pHENH6)
T3 chain: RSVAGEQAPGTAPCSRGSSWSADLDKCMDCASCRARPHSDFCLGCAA
The assay is described as above.

Assay [10] addresses T4, Fn14 gene fragment RW125 on phage (human, UniProt Q9NP84 31-74).
T4 construct: not shown: M13 pIII coat protein (gene fragment library in pHENH6)
Described as above.

Assay [11] deals with T5, Fn14 gene fragment RW120 on phage (human, UniProt Q9NP84 31-74).
T5 construct: not shown: M13 pIII coat protein (gene fragment library in pHENH6)
Described as above.

Assay [12] deals with T6, Fn14 gene fragment RW114 on phage (human, UniProt Q9NP84 31-70).
T6 construct: not shown: M13 pIII coat protein (gene fragment library in pHENH6)
T6 chain: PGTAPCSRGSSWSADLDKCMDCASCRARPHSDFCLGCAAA
Described as above.

Assay [13] deals with T7, Fn14 gene fragment RW95 on phage (human, UniProt Q9NP84 37-90).
T7 construct: not shown: M13 pIII coat protein (gene fragment library in pHENH6)
T7 sequence: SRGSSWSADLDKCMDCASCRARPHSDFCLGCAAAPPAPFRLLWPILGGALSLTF
Described as above.

T1 sequence (Q9NP84 28-77): as the sequence (Q9NP84 28-77 R56P) above, with P29R counted along it
phage-displayed hFn14 mutant T33N, sequence (Q9NP84 28-77 T33N): as the sequence (Q9NP84 28-77 R56P) above, with T6N, P29R counted along it
phage-displayed hFn14 mutant A34S, sequence (Q9NP84 28-77 A34S): as the sequence (Q9NP84 28-77 R56P) above, with A7S, P29R counted along it
phage-displayed hFn14 mutant R38S, sequence (Q9NP84 28-77 R38S): as the sequence (Q9NP84 28-77 R56P) above, with R11S, P29R counted along it
phage-displayed hFn14 mutant L77M, sequence (Q9NP84 28-77 L77M): as the sequence (Q9NP84 28-77 R56P) above, with P29R, L50M counted along it
T2 sequence (Q9NP84 32-74): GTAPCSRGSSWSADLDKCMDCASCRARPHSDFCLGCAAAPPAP

B1: CRCBT-06-002 (antibody, IgG1, V domains shown)
VH: EVKLQQSGGGLVQPGGSMKLSCVASGFTFSYYWMNWVRQSPEQGLEWIAEIRLQSNDYPTHYAESVKGRFTISRDDSKNSVYLQMNNLRPEDTGIYYCACRYADYFDHWGQGTTLTVSS
VL: DTVLTQSPASLVVSLGQRATISCRASQSVSTSDYSYIHWYQQKPGQPPKFLIKYASNRDSGVPARFSGSGSGTDFTLNIHPVEEDDTAIYYCQHSWEIPPTFGAGTKLELQR
Turning to B1, the binding result in [1], in assay [2], in assay [3], in assay [4] and in assay [5] was “binds” in each case. For the same molecule, the Kd with recombinant Fn14-Fc [6] was 935 pM. For the same molecule, the koff with recombinant Fn14-Fc [6] amounted to 1.42e-05 s⁻¹. Besides, the kon in the assay with recombinant Fn14-Fc [6] worked out at 15200 M⁻¹ s⁻¹.

B2: CRCBT-06-001 (antibody, IgG2b, V domains shown)
VH: QVQLQQSGGGLVQPGGSMKLSCIASGFTFSSYWMSWVRQSPEKGLEWVAEIRSKSDNYATHYAESVKGKFTISRDDSKSRFFLQMNNLRAEDTGIYYCSSTYADYFHYWGQGTDLTVSS
VL: DIVMTQTPASLAVSLGQRATISCRASQSVSTSTYSYMHWYQQKPGQPPKLLIKYASSLESGVPARFSGSGSGTDFTLNIHPVEEDDTATYYCQHSWEIPYTFGGGTKLEIKR
Regarding B2, in the assay with recombinant Fn14-Fc [7], the Kd was 768 pM. Also, the koff with recombinant Fn14-Fc [7] came out at 1.81e-05 s⁻¹. For the same molecule, the association rate constant (kon) in the assay with recombinant Fn14-Fc [7] was 23600 M⁻¹ s⁻¹. In addition, the binding result in assay [8] is recorded as “binds”; in assay [9] it was “binds”; in assay [10], “binds”; in [11], “binds”; in assay [12] it was “binds”; in assay [13], “no binding”.

For orientation: koff means the first-order rate constant of dissociation. A word on the kon: it is the rate constant with which the complex forms.
